The experiment deals with Human immunoglobulin G (IgG) (human). The experiment in a line: LSPR.

“Bovine serum albumin (from UniProt P02769 25-607) (natural protein)”: the LLSPR wavelength shift was less than 1 nm.

The values above are taken from PMC9359782.
